Test results from PMC3490968.
pKi: −log10 of the molar value.

Target: papain (UniProt P00784)
Assay: enzyme inhibition kinetics (fluorogenic substrate, Lineweaver-Burk plot); papain 2 nM, cystatin 40, 60, 80 pM, substrate Z-Phe-Arg-7-amido-4-methylcoumarin 0.3-5 uM; 100 mM sodium phosphate pH 6.3, 10 mM EDTA, 400 mM NaCl, 2 mM dithiothreitol

UniProt P00784, sequence (P00784 134-345): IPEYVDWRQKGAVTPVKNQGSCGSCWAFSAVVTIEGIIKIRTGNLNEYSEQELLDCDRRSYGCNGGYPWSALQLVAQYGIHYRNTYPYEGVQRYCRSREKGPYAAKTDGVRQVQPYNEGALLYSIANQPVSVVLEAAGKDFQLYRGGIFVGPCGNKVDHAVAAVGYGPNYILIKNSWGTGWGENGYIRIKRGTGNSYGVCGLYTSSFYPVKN

pKi	Substance
9.70	recombinant pineapple cystatin (AcCYS), residue 1-135 (natural protein)
9.85	truncated AcCYS (AcCYS_DL), residue 28-135 (domain or fragment)
